Assay results: US20180318451A1 (published 2018)
Positions count from the first letter of the chain named. Values belong to the binder of their own block, whether it stands above or below them.

How the values were obtained:
[1] = biological target: T1, rhPSMA, extracellular part of human PSMA (residues 44-750) with its native N-terminus (human, UniProt Q04609 44-750, N-glycosylated (made in Schneider S2 insect cells)); assay: SPR (BIAcore 2000), rhPSMA on chip
T1 construct: range 44-750; No tag; also called wild-type rhPSMA; rhGCPII
T1 sequence (Q04609 44-750 limits assumed): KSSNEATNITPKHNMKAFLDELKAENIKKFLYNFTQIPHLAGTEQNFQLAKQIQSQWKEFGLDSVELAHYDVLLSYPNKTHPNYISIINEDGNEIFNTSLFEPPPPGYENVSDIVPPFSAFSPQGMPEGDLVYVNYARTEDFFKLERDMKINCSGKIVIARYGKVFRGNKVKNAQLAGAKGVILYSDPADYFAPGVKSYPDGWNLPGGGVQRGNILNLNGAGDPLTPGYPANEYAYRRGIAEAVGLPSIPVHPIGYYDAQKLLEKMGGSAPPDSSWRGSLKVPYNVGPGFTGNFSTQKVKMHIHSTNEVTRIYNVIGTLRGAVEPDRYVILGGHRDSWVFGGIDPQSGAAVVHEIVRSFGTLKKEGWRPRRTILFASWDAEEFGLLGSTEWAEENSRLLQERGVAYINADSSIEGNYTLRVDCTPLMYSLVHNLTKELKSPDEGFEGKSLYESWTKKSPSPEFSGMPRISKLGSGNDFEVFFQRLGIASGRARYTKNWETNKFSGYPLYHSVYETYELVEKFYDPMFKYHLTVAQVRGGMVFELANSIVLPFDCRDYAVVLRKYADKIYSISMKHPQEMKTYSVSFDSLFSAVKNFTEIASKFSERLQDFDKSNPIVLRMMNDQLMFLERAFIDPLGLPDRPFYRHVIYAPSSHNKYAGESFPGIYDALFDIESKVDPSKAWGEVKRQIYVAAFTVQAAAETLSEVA
Method: (§1) Surface plasmon resonance (SPR) spectroscopy was performed on a BIAcore 2000 instrument (BIAcore) following published procedures (Gebauer, M. et al. [2013] J. Mol. Biol. 425:780-802; De Crescenzo, G. et al. [2008] J. Mol. Recognit. 21:256-266). rhPSMA (1 nM in 10 mM Na-acetate pH 5.0) was immobilized on a CM5 sensor chip (BIAcore) using an amine coupling kit (GE Healthcare, BR100050), resulting in around 500 resonance units (ΔRU). The purified Anticalins were diluted in HEPES buffered saline (HBS; 10 mM HEPES/NaOH, 150 mM NaCl, pH 7.4) with 0.005% v/v Tween 20 to concentrations from 64-2 nM. The instrument was operated using the same running buffer at a flow rate of 25 μL/min. […] Regeneration of the sensor chip was achieved by up to four injections of 10 μL glycine/HCl, pH 2.0. The sensorgrams were corrected by double subtraction of the corresponding signals measured for the in-line control blank channel and an averaged baseline determined from three buffer blank injections³¹. Kinetic parameters were determined by data fitting using a 1:1 Langmuir binding model with BIAevaluation software version 4.1 (BIAcore).
To precisely determine kinetic and thermodynamic binding constants of the PSMA-specific Anticalin A3 and its variants, surface plasmon resonance (SPR) real-time analyses was performed on a BIAcore 2000 instrument. […]

[2] = biological target: T1, rhPSMA, extracellular part of human …; assay: SPR (BIAcore 2000), rhPSMA amine-coupled to CM5 chip, Anticalin as analyte
Method: Anticalin binding was detected using StrepTactin/AP conjugate, followed by chromogenic reaction. Absorption was plotted against the Anticalin concentration and data were analyzed by curve fitting. Binding curves for the best performing clones A3 and A3A5 are shown as solid lines. (C-E) SPR sensograms measured for Anticalins A3, A3A5 and A3A5.1 on a BIAcore 2000 instrument. Approximately 500 RU of rhPSMA was immobilized on a CM5 sensor chip by amine coupling. A dilution series from 64 to 2 nM of the purified Anticalin in HBS was applied and the resulting curves were fitted according to a Langmuir 1:1 binding model. (F) Comparison of parameters from real-time SPR analysis for Anticalins investigated in C-E, together with A3A5.7, in a kₒₙ/koff plot.
as §1
To precisely determine kinetic and thermodynamic binding constants of the PSMA-specific Anticalin A3 and its variants, surface plasmon resonance (SPR) real-time analyses was performed on a BIAcore 2000 instrument. To this end, rhPSMA was chemically coupled to the carboxymethyl dextran matrix of a sensorchip using amine chemistry and a concentrations series of each Anticalin was applied.

[3] = biological target: T1, rhPSMA, extracellular part of human …; assay: ELISA, rhPSMA coated on MaxiSorp plate, Anticalin dilution series
From the text: (§2) FIG. 4: Anticalin affinities towards PSMA as determined by ELISA and BIAcore measurements. Binding activities of Anticalins selected from the original naïve library (A) or resulting from subsequent affinity maturation of the A3 variant (B) were compared in an ELISA. A 96-well MaxiSorp plate was coated with rhPSMA (or ovalbumin as a negative control, not shown) and purified Anticalin variants were applied in dilution series. Anticalin binding was detected using StrepTactin/AP conjugate, followed by chromogenic reaction. Absorption was plotted against the Anticalin concentration and data were analyzed by curve fitting. Binding curves for the best performing clones A3 and A3A5 are shown as solid lines. (C-E) SPR sensograms measured for Anticalins A3, A3A5 and A3A5.1 on a BIAcore 2000 instrument. Approximately 500 RU of rhPSMA was immobilized on a CM5 sensor chip by amine coupling. […]
(§3) 50 μL of rhPSMA (5 μg/mL in TBS) was directly adsorbed onto the surface of a MaxiSorp 96-well plate overnight at 4° C. […] The plates were washed three times and bound Anticalins were detected with StrepTactin-AP as described further above. The data were analyzed using Prism 5 software (GraphPad) and absorption values (A) were fitted according to the formula ΔA=Aₘₐₓ·[Lₜₒₜ]/(KD+[Lₜₒₜ]) with the concentration of the applied lipocalin variant [Lₜₒₜ] and the dissociation constant KD.

ovalbumin = biological target: T2, ovalbumin (UniProt P01012 2-386); assay: ELISA, ovalbumin-coated wells
T2 sequence (looked up): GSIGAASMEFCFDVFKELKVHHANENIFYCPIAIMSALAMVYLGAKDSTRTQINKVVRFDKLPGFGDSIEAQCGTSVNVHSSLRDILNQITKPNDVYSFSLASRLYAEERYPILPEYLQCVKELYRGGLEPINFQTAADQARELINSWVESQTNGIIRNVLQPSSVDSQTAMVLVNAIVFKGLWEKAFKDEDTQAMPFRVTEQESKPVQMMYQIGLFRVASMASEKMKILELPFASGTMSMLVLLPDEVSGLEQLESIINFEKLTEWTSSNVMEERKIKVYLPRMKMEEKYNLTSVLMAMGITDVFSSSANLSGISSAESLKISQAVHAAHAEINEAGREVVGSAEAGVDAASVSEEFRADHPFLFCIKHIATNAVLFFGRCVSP
From the text: (§4) Enriched lipocalin variants from phage display were subjected to ELISA screening after subcloning of the central BstXI gene cassette on pNGAL98, which also encodes the N-terminal OmpA signal sequence directing the expressed protein into the bacterial periplasm and a C-terminal Strep-tag II for purification (Schmidt, T. G. & Skerra, A. [2007] Nat. Protoc. 2:1528-1535). After transformation of E. coli TG1-F- (Kim, H. J. et al. [2009] J. Am. Chem. Soc. 131:3565-3576) with the ligation mixture, randomly picked colonies were inoculated in a 96-well plate filled with 100 μL of Terrific broth (TB) media supplemented with 100 μg/mL ampicillin per well. Anticalin expression was induced at an optical density of OD₅₅₀=0.3-0.5 by addition of 20 μL TB/Amp containing 1.2 μg/mL anhydrotetracycline (aTc; ACROS Organics, 233131000) overnight at 20° C. The periplasmic extract was prepared as previously described²¹ and applied to 96-well MaxiSorp plates (Nunc, 442404) coated with rhPSMA (5 μg/mL in TBS) and blocked with BSA. Ovalbumin (10 μg/mL in TBS) served as non-related control protein in parallel. After 1 h incubation at room temperature, plates were washed three times with PBS/T and bound lipocalin variants were detected by means of their C-terminal Strep-tag II using StrepTactin conjugated to alkaline phosphatase (IBA, 2-1503-001), diluted 1:5,000 in PBS, for 1 h. Signals were developed by hydrolysis of 0.5 mg/mL p-nitrophenyl phosphate in 0.1 M NaCl, 5 mM MgCl₂, 0.1 M Tris/HCl, pH 8.8, and monitored via absorbance measurement at 405 nm with an Infinite 200 PRO microplate reader (Tecan).
Individual colonies were used for micro-scale expression in a 96-well plate and crude E. coli lysates from these cultures were screened in an ELISA for Anticalins having PSMA-binding activity. To this end, MaxiSorp plates coated with glycosylated rhPSMA were used as a target, whereas ovalbumin-coated wells were used as negative control to assess non-specific binding. Bound Anticalins were detected via the C-terminal Strep-tag II.

[4] = biological target: T1, rhPSMA, extracellular part of human …; assay: ELISA, rhPSMA coated on MaxiSorp plate, Anticalin dilution series, detection by StrepTactin/AP
From the text: as §2, §3

[5] = biological target: T1, rhPSMA, extracellular part of human …; assay: SPR (BIAcore), rhPSMA on chip, Anticalin as analyte
Method: as §1
Several combinations of mutations occurring in the PSMA-specific Lcn2 variants A3A5.1 (carrying 5 new mutations) and A3A5.7 (carrying 4 new mutations) were prepared in order to investigate the relevance of the mutations that were found during affinity maturation for improved PSMA binding with the aim to create a combined Anticalin variant suitable for further protein engineering studies. A first combination, containing solely the mutations located in the loop regions of the Anticalins, was carried out by introducing the following mutations into the sequence of A3A5 (see SEQ ID NO:2): (i) a Y at position 71 as also present in A3A5.1, (ii) an N at position 74 as also present in A3A5.7, (iii) a D at position 103 as also present in A3A5.1. This triple substitution variant, termed A3A5.8, was obtained by gene synthesis, cloned and subsequently expressed (as described in Example 1).

[6] = biological target: T1, rhPSMA, extracellular part of human …; assay: SPR (BIAcore), rhPSMA on chip
Method: as §1, with “(BIAcore). […]” for “(BIAcore).”

[7] = biological target: T1, rhPSMA, extracellular part of human …; assay: ELISA, rhPSMA coated on MaxiSorp plate
From the text: as §4, with “The periplasmic extract was prepared as previously described²¹ and applied to 96-well MaxiSorp plates (Nunc, 442404) coated with rhPSMA (5 μg/mL in TBS) and blocked with BSA. Ovalbumin (10 μg/mL in TBS) served as non-related control protein in parallel.” left out, “(Tecan). […]” for “(Tecan).”

binding result (ovalbumin): no binding
Kd [4]: 6 nM
Kd [2]: 4.8 nM
koff [2]: 0.00058 s⁻¹
kon [2]: 120000 M⁻¹ s⁻¹
Kd [3]: 5.8 nM
B3: Anticalin A3 (designed binder)
chain: QDSTSDLIPAPPLSKVPLQQNFQDNQFHGKWYVVGLAGNMILREDKDPYKMSATIYELKEDKSYNVTNVRFYLKKCYYTIATFVPGSQPGEFTLGTIKSGPGKTSGLVRVVSTNYNQHAMVFFKEVQQNREWFIITLYGRTKELTSELKENFIRFSKSLGLPENHIVFPVPIDQCIDG
notes: Lcn2-derived lipocalin variant, monomeric, made by periplasmic secretion in E. coli from pNGAL98 with a C-terminal Strep-tag II; also called variant A3; not shown: C-terminal Strep-tag II

binding result [7]: binds
binding result (ovalbumin): no binding
B7: Anticalin candidate H5 (designed binder)
chain: QDSTSDLIPAPPLSKVPLQQNFQDNQFHGKWYVVGTAGNWPLREDKDPHKMSATIYELKEDKSYNVTNVQFSSKKCLYFIGTFVPGSQPGEFTLGPIKSAPGQTSGLVRVVSTNYNQHAMVFFKQVIQNREAFIITLYGRTKELTSELKENFIRFSKSLGLPENHIVFPVPIDQCIDG
notes: not shown: C-terminal Strep-tag II

binding result [7]: binds
binding result (ovalbumin): no binding
B8: Anticalin candidate A2 (designed binder)
chain: QDSTSDLIPAPPLSKVPLQQNFQDNQFHGKWYVVGRAGNKPLREDKDPLKMWATIYELKEDKSYNVTIVWFDFKKCWYRISTFVPGSQPGEFTLGRIKSAPGVTSGLVRVVSTNYNQHAMVFFKYVFQNREWFHITLYGRTKELTSELKENFIRFSKSLGLPENHIVFPVPIDQCIDG
notes: as for B7

Continued, binder first:

B1: Anticalin A3A5 (designed binder)
chain: B3 chain with M40V
notes: Differs from A3 by Val for Met at position 40; monomeric, 21 kDa; also called variant A3A5; not shown: C-terminal Strep-tag II
fold improvement of KD against A3 [1]: 2 fold
Kd [2]: 2.5 nM
koff [2]: 0.00017 s⁻¹
kon [2]: 71000 M⁻¹ s⁻¹
Kd [3]: 2.1 nM

B2: Anticalin A3A5.7 (designed binder)
chain: B3 chain with M40V, K74N, Q88R, N116S, E147K
notes: Soluble form as in SPR; also called variant A3A5.7; not shown: C-terminal Strep-tag II
Kd [2]: 0.54 nM
koff [2]: 0.00014 s⁻¹
kon [2]: 270000 M⁻¹ s⁻¹

B4: Anticalin A3A5.9 (designed binder)
chain: B3 chain with M40V, F71Y, K74N, K103D, E147K
notes: A3A5.8 with K for E at position 147; also called variant A3A5.9; not shown: C-terminal Strep-tag II
Kd [5]: 0.74 nM
koff [5]: 0.00016 s⁻¹
kon [5]: 220000 M⁻¹ s⁻¹

B5: Anticalin A3A5.1 (designed binder)
chain: B3 chain with M40V, K59N, F71Y, F92Y, K103D, E147K
notes: Soluble form as in SPR; also called variant A3A5.1; not shown: C-terminal Strep-tag II
Kd [2]: 0.66 nM
koff [2]: 0.00014 s⁻¹
kon [2]: 210000 M⁻¹ s⁻¹

B6: Anticalin A3A5.8 (designed binder)
chain: B3 chain with M40V, F71Y, K74N, K103D
notes: A3A5 with Y at 71, N at 74 and D at 103; also called variant A3A5.8; not shown: C-terminal Strep-tag II
Kd [5]: 1.4 nM
koff [5]: 0.00015 s⁻¹
kon [5]: 110000 M⁻¹ s⁻¹
fold improvement of KD against A3A5 [6]: ~2 fold
